Reference: a protein production outcome set (Wang et al. 2014)

Test: label from the status in PepcDB records

Question: Which protein production does the source give for “MPTPFDVTILGGGLAGRLCAWQLAQTGVPPARIAVVERGARDGSGSAAYVAAAMLAPLAEAAVADRFVVELGLASLTLWRDWLPMLRTPVFFQQAGTLVVWHPADRGEASLFANHVRAATPPERIAADLRAVDAEGIGTLEPALAQRFSQGLYLAGEGQLDNRAVLDALATELEALGVQLRWNTAVADPHPQALAAAGLGARLVLDCRGLGAQPQWPQLRGLRGEVARIHAPDVTLTRPVRMLHPRYPIYIAPKPGHVYVIGATEIESDDMSPVSVRSTLELLSAAYAVHPAFGEARVLELCTQCRPTLPDHRPAIRWDGAGTLSVNGLYRHGYMIAPAVAQAAVAAAHALLDGRAIDAPASAWPGLFAAPASPEPVLPLEHHHHHH” here?
Answer: not failed

Question: Which protein production does the source give for “MNKLLLVAAGGAVGSVARYLVGVGAMRVMGPGWPYGTFTVNVVGGFLMGCLASWLAHRGNTSSETWRVMLGVGVLGGFTTFSSFSLETALMIQKRAYGQAFTYSAASVLLAIAALFAGLLVARKVFA” here?
Answer: failed

Question: For “MRNPFERMPTVLTADELIDKAFRRAEKAASSFKPRGNKVKKARLREELRVRTVSNVVRDNLRKVLERTPGLSTLPKFYQELVDVLVDRDTFHKAMAGIDWAIRIIRELEERYVERIRYSNDPNEIAELRRQFYGRVASVLRDIDDRLRYLNKAREVLKDLPVVDLEIPTVVIAGHPNVGKSTLLKALTTAKPEIASYPFTTRGINVGQFEDGYFRYQIIDTPGLLDRPISERNEIEKQAILALRYLGNLIIYIFDPSEHCGFPLEEQIHLFEEVHGEFKDLPFLVVINKIDVADEENIKRLEKFVKEKGLNPIKISALKGTGIDLVKEEIIKTLRPLAEKVAREKIERELRRYRSYLLEHHHHHH”, which protein production is on record?
Answer: failed

Question: For “MGHHHHHHSHMKMEHQNKRSPLHAAAEAGHVDICHMLVQAGANIDTCSEDQRTPLMEAAENNHLEAVKYLIKAGALVDPKDAEGSTCLHLAAKKGHYEVVQYLLSNGQMDVNCQDDGGWTPMIWATEYKHVDLVKLLLSKGSDINIRDNEENICLHWAAFSGCVDIAEILLAAKCDLHAVNIHGDSPLHIAARENRYDCVVLFLSRDSDVTLKNKEGETPLQCASLNSQV”, which protein production is on record?
Answer: failed

Question: With “MAEHAPHFTITPLGGLGEIGLNCQVWSTADSTVLIDCGLMFPDDYHLGVDVVIPRFDHILQQRDKVRGIILTHGHEDHIGALPWLVPHLRGIPIFGSRFTLALVEHKLREHGLADRVEFVPVTPGTPLALGDMTFHFLPVCHSIIEGYAVGVETPVGRVLHTGDFKIDPHPLEGSGTDLDLFRSFAGDEGVRLLLSDSTNIEREGHSLPEREILSSFRHIFTEAQGRIVITLFSSHIQRIQEVFDLAAEFGRTVVVSGRSLMTNIELAREHGFLRVPPALHMDAAGLPPVADRDMVLLVTGSQGEPLSALSRITMGEHKHLTIHEGDTVVMSSRIIPGNARAITRLINQIYRLGAEVYYDKFRAIHASGHAHRDELRAMIETMRPQCFVPVHGEYRHLVKHARLAQECGVAPERAFILENGDPLTLLPQGVRLGERIHVESILVDGKGVGDVGHSVLKERHILGGEGMVIVVLVVDEVTWDVLHGPEMLSKGFVFEQHYNHVLEDAKCIVLDIFENIPPGETERLQDRIRSALRRFFRKVLERDPIVVPVITTI” as the sequence, how does the protein production read?
Answer: failed

Question: With “MKEYLTRSNISYFSIGSGTPIIFLHGLSLDKQSTCLFFEPLSNVGQYQRIYLDLPGMGNSDPISPSTSDNVLETLIEAIEEIIGARRFILYGHSYGGYLAQAIAFHLKDQTLGVFLTCPVITADHSKRLTGKHINILEEDINPVENKEYFADFLSMNVIINNQAWHDYQNLIIPGLQKEDKTFIDQLQNNYSFTFEEKLKNINYQFPFKIMVGRNDQVVGYQEQLKLINHNENGEIVLLNRTGHNLMIDQREAVGFHFDLFLDELNSNN” as the sequence, how does the protein production read?
Answer: not failed

Question: With “MRRTRRPRFVLMNKMDDLNLHYRFLNWRRRIREIREVRAFRYQERFKHILVDGDTLSYHGNSGEVGCYVASRPLTKDSNYFEVSIVDSGVRGTIAVGLVPQYYSLDHQPGWLPDSVAYHADDGKLYNGRAKGRQFGSKCNSGDRIGCGIEPVSFDVQTAQIFFTKNGKRVGSTIMPMSPDGLFPAVGMHSLGEEVRLHLNAELGREDDSVMMVDSYEDEWGRLHDVRVCGTLLEYLGKGKSIVDVGLAQARHPLSTRSHYFEVEIVDPGEKCYIALGLARKDYPKNRHPGWSRGSVAYHADDGKIFHGSGVGDPFGPRCYKGDIMGCGIMFPRDYILDSEGDSDDSCDTVILSPTARAVRNVRNVMYLHQEGEEEEEEEEEEEDGEEIEPEHEGRKVVVFFTRNGKIIGKKDAVVPSGGFFPTIGMLSCGEKVKVDLHPLSG” as the sequence, how does the protein production read?
Answer: not failed

Question: For “LTLDLAPVTPKDAPLLHRVFHLSPSYFALIGMELPTLEDVVRDLQTLEVDPRRRAFLLFLGQEPVGYLDAKLGYPEAEDATLSLLLIREDHQGRGLGRQALERFAAGLDGVRRLYAVVYGHNPKAKAFFQAQGFRYVK”, which protein production is on record?
Answer: not failed

Question: For “SLSEDKMDLYLQQGMYGPLETKPDERHLFLGSLRERVVLALTKGQVLRSKPYKEAEHELKNSHNVTLLINGELQYQSYSSYIQMASRYGVPFKIVSDLQFHTPLGIVIAADIAVNRELIYIQDDIYNRSVLKS”, which protein production is on record?
Answer: not failed

Question: Which protein production does the source give for “MKIGIIGVGKMASAIIKGLKQTPHELIISGSSLERSKEIAEQLALPYAMSHQDLIDQVDLVILGIKPQLFETVLKPLHFKQPIISMAAGISLQRLATFVGQDLPLLRIMPNMNAQILQSSTALTGNALVSQELQARVRDLTDSFGSTFDISEKDFDTFTALAGSSPAYIYLFIEALAKAGVKNGIPKAKALEIVTQTVLASASNLKTSSQSPHDFIDAICSPGGTTIAGLMELERLGLTATVSSAIDKTIDKAKSL” here?
Answer: not failed

Question: With “MYSDKKNILQLVALLKAHGVRKIVLCPGSRNAAIVHTLANIEDFTCYSVTDERSAGFFAIGLSLQGGGPAAVCCTSGSALLNLHPAVAEAFYQQVPLIVISADRPAAWIGQMDGQTLPQPHVFGTLVKMSVNLPEVHTEEDEWFCNRLINEAILETTHHGKGPVHINVPISEPIYRFTAKTLPEVRVITRYQGL” as the sequence, how does the protein production read?
Answer: failed

Question: Which protein production does the source give for “LTRWGAFRNITLPLALPGLAAAAMFTFVMSWNEVFVASILTLKNRTLPAQILSIVAGAAGGAAPAYYKFAAAFIMTLPAMLFIFFARRYLVTMWGITL” here?
Answer: failed

Question: With “MQHNELKTPYFMINEDKLIANLEKAKQLKEISGVKLVLALKCFSTWGVFDIIKPYLDGTTSSGPFEVKLGYETFGGETHAYSVGYSEDDVREVADICDKMIFNSQSQLAAYRHIVEGKASIGLRLNPGVSYAGQDLANPARKFSRLGVQADHIKPEVFEGIDGVMFHMNCENKDVDAFIGLLDAISEQFGEYLNKLDWVSMGGGVFFTWPGYDIEKLGLALKAFSEKHGVQMYLEPGEAIITKTTDLVVTVVDIVENVKKTAIVDSATEAHRLDTLIYNEPASILEASDNGEHEYVIGSCSCLAGDQFCVANFDQPLEIGQRLHILDSAGYTMVKLNWFNGLRMPSVYCERSSGEIQKLNEFDYSDFKRSLSQWSVK” as the sequence, how does the protein production read?
Answer: failed

Question: For “MDQKEAPSFTEASVHDPSVIKVEDTFYVFGSHLAAAKTEDLRNWTQIATHVHEGNPLIPNVFVELAEAFEWANSNTLWAADVIQLEDGRFYMYYNACQGDAPRSALGVAVADDIEGPYENLGVFLKSGMWGEESPDGTIYDANVHPNAIDPHVFFDEEGKLWMVYGSYSGGIFILEMDPDTGFPLPGQGYGTHLMGGNHSRIEAPYIHYDKETEYYYLYVTFGGLDSTGGYNMRVARSKQPDGPYVDGEGHLMSEVRGAPGTLFDDASIEPYGVKQMGNFLFKRELGERGTGYVSPGHNSVYYDDEVDKIFLFFHTRFPERGEAHEIRVHQMFMNRKGWPVIAPYRYLEHHHHHH”, which protein production is on record?
Answer: failed

Question: Which protein production does the source give for “MAEELDDLTKFEAKGTSHHLPVGWLALFWGLIVFGAYYYWAYSPALGGWSQAKDLETGGASSGANLLWTIAFTAVPALVAIWMGLTQKKKAR” here?
Answer: failed

Question: With “MGNLKAEYLEQTYIDLAPLKDAEDCRTYLTRSQVDGSLAVRKEICALQYPLYQQLIDFSHPSLARVLETYTKDGRYFVLEEYVSGSTIGSYLKRGYHFQEHEILSFISQLCSALSFLHAHNIIHRDVTPENLLISTDNVLKLIDFGISRSKKEGQSQDTTILGTVGYAAPEQFGFGQTDERTDIYATGVLLNVLLTGSLPKDDLPFDPRYRQIVLKCTSISPADRYSSVSELKSQIMAIKPTRIYQAEIVEPSGKAPRKDSLIRRFFRHVPGFRTGNPGKMIVAIIGYFLMLLFVVVNGTRPLEPGDIRSEYWTINYFFVGVWAAYVNLGNYCGHIEAYDKVGPLTRLLLRTAVALAVFLTTGLLLYFENYCLK” as the sequence, how does the protein production read?
Answer: failed

Question: For “MRHNIKFKSKGTLKIRNTAQISLWKKCSDSMIADQTYLFINRVQDRRFDEESLRILELSLVAMNVKSFLEVRSRLRDFMRSESVVIFGELTGESMVAKLSVLEFFARAFALLGDMESCLAMRYEALNLRQLKSPSCLWLGVSHSEWTKFAVQSMENGFPSIAGKASENALLSLKKDSLIEPKSEDNSDILDAAEKVRRLRDSAASLTSSHSGIFIYIVSSLKFAVCNRLLTTF”, which protein production is on record?
Answer: failed

Question: For “MENWVIQIIERLGYLGIAFLMFLDNVFPPIPSEIIMPSAGYTASRGQLQIIGVIVAGSLGSILAAAILYALGRQISHAALFRWTDRYGKYLLIQTKDLQIALEWFEKYGHRIVFFGRMIPAVRSLISIPAGMSRMPFWKFMLYSSLGTVIWTTFLAGVGFYFGENQAFMFSIMHRVGYLILAITLMVSVWWIYHKFYKKR”, which protein production is on record?
Answer: failed

Question: For “DGKVTKVFSSPLMARVQDLSSCAFPAPRISAEKTAAHEVDKDTITYTITVRNSGNLEATGTKFTDNLPGSYVPNSAKLNG”, which protein production is on record?
Answer: failed

Question: For “MIPFTIEYIFVLIGAFLLSIILTPIIRVISLKVGAVDKPNARRINKVPMPSSGGLAIFLSFVVTTLFFMPMAASRHFIEVSYFHYILPVIIGGLVVTTTGFIDDIFELRPRYKMLGIIIAAIIIWKFTHFRFDSFKIPIGGPLLEFGPILTFFLTVLWIISITNAINLIDGLDGLVSGVSIISLATMAVVSYFFLPKIDFFLTLTIVILIASIVGFFPYNYHPAIIYLGDAGALFIGFMIGVLSLQGLKNSTAVAVITPVIILGVPILDTAVAIVRRKLSGKKISEADKMHLHHRLLSMGFTHRGAVLVVYGIAIIFSLIALLLNVSSRIGGIFLLLALLLAMEIFIEGLNIWGENRTPLFNLLKFIGNSDYRQSVIAKYSDKHQK”, which protein production is on record?
Answer: failed

Question: For “MQYLIVKYSHQIFVTITILVFNIRFFLLWKNPEKPLAGFWKALPHLNDTMLLFTGLWLMKITHFSPFNAPWLGTKILLLLAYIALGMMMMRARPRSTKFYTVYLLAMCCVACIVYLAKTKVLPF”, which protein production is on record?
Answer: failed

Question: With “MTEKSQEPTAALDAEQVAAYLSQHPEFFVEHDELIPELRIPHQPGDAVSLVERQVRLLRERNIEMRHRLSQLMDVARENDRLFDKTRRLVLDLLDATSLEDVVSTVEDSLRHEFQVPYVSLILFSDSSVSVGRSVSSAEAHQAIGGLLSGGKTVCGVLRPHELAFLFGESDRDEIGSAAVVSLSFQGLHGVLAIGSPDPQHYKSSLGTLFLGYVAEVLARVLPRFSSPLRSVR” as the sequence, how does the protein production read?
Answer: not failed

Question: Which protein production does the source give for “MDELRQKLQYSSFELEAVKAKANEETKLHQEEVKNLLHLLKLARQERDEAKDQLQKLLTIKTNSSITESNSHGSSPVDSFFEPVSSSEFSNFNMVPEPINQVKFKNRQQLVNRNLKKIDPVDALMDEIIKGKALPEKGKLLQTVMESGPLLQTLLVAGPLPRWRNPPPLQQSFRVPPISNSYGCLPATTTTSMLNFRGCSVPRIATGIEVATKRQRFH” here?
Answer: failed

Question: Which protein production does the source give for “MGHHKAMPYADVAAFIIELRKREAVAATALEFTILTAARSGETLGAKWHEIDWKDKIWTVPAERMKAAREHRVPLSSRTITILKKLAEFGSDENSFVFPGQKPGKPLSVMAMDMVLRRMEVDVTVHGFRSSFRDWCGEVSNFPRDVAEAALAHVVGDKTERAYRRGDALEKRRKLMAAWEKFCIAEIKKNPLEHHHHHH” here?
Answer: failed
